{"source": "paper PMC10041117", "target": "F-actin of the thin filaments in NRCs, labelled with Phalloidin-iFluor 514 (rat (endogenous in neonatal rat cardiomyocytes)) (UniProt P68035)", "assay": "FRET or BRET; FRET-FLIM (time-domain, TCSPC, donor lifetime) in NRCs demembranated in relaxing solution with 25 μmol/L nitro-blebbistatin and fixed with paraformaldehyde; mTFP donor, mVenus or Phalloidin-iFluor514 acceptor; cells untreated or incubated with isoproterenol before skinning", "data": [{"substance": "mTFP-cMyBP-C (cardiac myosin binding protein-C with mTFP conjugated to its N terminus) (from UniProt Q14896 1-1274) (natural protein)", "values": [{"measurement": "FRET efficiency <E%>", "value": 12, "unit": "%"}]}]}
